Measured values from the supplement of paper PMC10567573.

B1: C10orf62 (parent)
chain: TSECPSDKDKSPESHKAKNESWIK

Variants of: B1
Assay: protein stability index of a GFP-peptide fusion (GPS, HEK-293T) (PSI 1-6); higher = more stable
Settings: c terminus: a fixed tail appended
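Also: lentivirally expressed fusions sorted by FACS into six bins by GFP to DsRed ratio, PSI derived from sequencing read proportions per bin multiplied by bin number.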

| Variant | protein stability index |
| --- | --- |
| TSECPSDKFKSPESHKAKNESWIK [D9F] | 2.16 |
| TSECPSDKQKSPESHKAKNESWIK [D9Q] | 3.27 |
| TSECPSDKTKSPESHKAKNESWIK [D9T] | 3.34 |
| TSECPSDKVKSPESHKAKNESWIK [D9V] | 2.9 |
| TSECPSDKGKSPESHKAKNESWIK [D9G] | 3.42 |
| TSECPSDKHKSPESHKAKNESWIK [D9H] | 3.18 |
| TSECPSDKWKSPESHKAKNESWIK [D9W] | 2.98 |
| TSECPSDKKKSPESHKAKNESWIK [D9K] | 2.25 |
| TSECPSDKSKSPESHKAKNESWIK [D9S] | 3.11 |
| TSECPSDKCKSPESHKAKNESWIK [D9C] | 2.46 |
| TSECPSDKAKSPESHKAKNESWIK [D9A] | 2.68 |
| TSECPSDKRKSPESHKAKNESWIK [D9R] | 2.62 |
| TSECPSDKNKSPESHKAKNESWIK [D9N] | 2.94 |
| TSECPSDKPKSPESHKAKNESWIK [D9P] | 3.39 |
| TSECPSDKYKSPESHKAKNESWIK [D9Y] | 2.64 |
| TSECPSDKLKSPESHKAKNESWIK [D9L] | 2.54 |
| TSECPSDKEKSPESHKAKNESWIK [D9E] | 3 |
| TSECPSDKMKSPESHKAKNESWIK [D9M] | 3.28 |
| TSECPSDMDKSPESHKAKNESWIK [K8M] | 3.52 |
| TSECPSDTDKSPESHKAKNESWIK [K8T] | 3.45 |
| TSECPSDYDKSPESHKAKNESWIK [K8Y] | 3.26 |
| TSECPSDVDKSPESHKAKNESWIK [K8V] | 3.62 |
| TSECPSDCDKSPESHKAKNESWIK [K8C] | 3.52 |
| TSECPSDPDKSPESHKAKNESWIK [K8P] | 3.38 |

| Variant | protein stability index |
| --- | --- |
| TSECPSDQDKSPESHKAKNESWIK [K8Q] | 3.52 |
| TSECPSDSDKSPESHKAKNESWIK [K8S] | 3.84 |
| TSECPSDADKSPESHKAKNESWIK [K8A] | 3.08 |
| TSECPSDLDKSPESHKAKNESWIK [K8L] | 3.38 |
| TSECPSDWDKSPESHKAKNESWIK [K8W] | 2.99 |
| TSECPSDHDKSPESHKAKNESWIK [K8H] | 3.15 |
| TSECPSDIDKSPESHKAKNESWIK [K8I] | 3.48 |
| TSECPSDNDKSPESHKAKNESWIK [K8N] | 3.31 |
| TSECPSDFDKSPESHKAKNESWIK [K8F] | 3.68 |
| TSECPSDGDKSPESHKAKNESWIK [K8G] | 4.03 |
| TSECPSDRDKSPESHKAKNESWIK [K8R] | 3.95 |
| TSECPSDEDKSPESHKAKNESWIK [K8E] | 4.41 |
| TSECPSDDDKSPESHKAKNESWIK [K8D] | 3.35 |
| TSECPSDKDKSPESVKAKNESWIK [H15V] | 3.88 |
| TSECPSDKDKSPESLKAKNESWIK [H15L] | 3.48 |
| TSECPSDKDKSPESSKAKNESWIK [H15S] | 3.61 |
| TSECPSDKDKSPESTKAKNESWIK [H15T] | 2.99 |
| TSECPSDKDKSPESMKAKNESWIK [H15M] | 2.83 |
| TSECPSDKDKSPESGKAKNESWIK [H15G] | 3.69 |
| TSECPSDKDKSPESAKAKNESWIK [H15A] | 4.12 |
| TSECPSDKDKSPESRKAKNESWIK [H15R] | 3.31 |
| TSECPSDKDKSPESYKAKNESWIK [H15Y] | 3.35 |
| TSECPSDKDKSPESPKAKNESWIK [H15P] | 3.92 |
| TSECPSDKDKSPESEKAKNESWIK [H15E] | 3.84 |

| Variant | protein stability index |
| --- | --- |
| TSECPSDKDKSPESNKAKNESWIK [H15N] | 2.69 |
| TSECPSDKDKSPESQKAKNESWIK [H15Q] | 3.37 |
| TSECPSDKDKSPESIKAKNESWIK [H15I] | 4.07 |
| TSECPSDKDKSPESCKAKNESWIK [H15C] | 3.2 |
| TSECPSDKDKSPESKKAKNESWIK [H15K] | 4.06 |
| TSECPSDKDKSPESWKAKNESWIK [H15W] | 3.33 |
| TSECPSDKDKSPESFKAKNESWIK [H15F] | 3 |
| TSECPSDKDKSPESDKAKNESWIK [H15D] | 3.92 |
| TSECPSDKDKSTESHKAKNESWIK [P12T] | 3.54 |
| TSECPSDKDKSWESHKAKNESWIK [P12W] | 2.37 |
| TSECPSDKDKSAESHKAKNESWIK [P12A] | 2.87 |
| TSECPSDKDKSIESHKAKNESWIK [P12I] | 3.21 |
| TSECPSDKDKSGESHKAKNESWIK [P12G] | 3.48 |
| TSECPSDKDKSCESHKAKNESWIK [P12C] | 3.62 |
| TSECPSDKDKSSESHKAKNESWIK [P12S] | 2.54 |
| TSECPSDKDKSQESHKAKNESWIK [P12Q] | 3.79 |
| TSECPSDKDKSYESHKAKNESWIK [P12Y] | 2.74 |
| TSECPSDKDKSVESHKAKNESWIK [P12V] | 2.4 |
| TSECPSDKDKSEESHKAKNESWIK [P12E] | 3.15 |
| TSECPSDKDKSDESHKAKNESWIK [P12D] | 3.83 |
| TSECPSDKDKSFESHKAKNESWIK [P12F] | 2.44 |
| TSECPSDKDKSHESHKAKNESWIK [P12H] | 3.44 |
| TSECPSDKDKSLESHKAKNESWIK [P12L] | 2.77 |
| TSECPSDKDKSNESHKAKNESWIK [P12N] | 3.3 |

| Variant | protein stability index |
| --- | --- |
| TSECPSDKDKSKESHKAKNESWIK [P12K] | 2.86 |
| TSECPSDKDKSMESHKAKNESWIK [P12M] | 3.19 |
| TSECPSDKDKSRESHKAKNESWIK [P12R] | 1.66 |
| TSECPSDKDKSPQSHKAKNESWIK [E13Q] | 3.34 |
| TSECPSDKDKSPDSHKAKNESWIK [E13D] | 2.98 |
| TSECPSDKDKSPTSHKAKNESWIK [E13T] | 2.65 |
| TSECPSDKDKSPLSHKAKNESWIK [E13L] | 2.21 |
| TSECPSDKDKSPSSHKAKNESWIK [E13S] | 3.2 |
| TSECPSDKDKSPGSHKAKNESWIK [E13G] | 2.89 |
| TSECPSDKDKSPMSHKAKNESWIK [E13M] | 2.65 |
| TSECPSDKDKSPFSHKAKNESWIK [E13F] | 2.94 |
| TSECPSDKDKSPISHKAKNESWIK [E13I] | 2.44 |
| TSECPSDKDKSPYSHKAKNESWIK [E13Y] | 2.98 |
| TSECPSDKDKSPHSHKAKNESWIK [E13H] | 3.02 |
| TSECPSDKDKSPCSHKAKNESWIK [E13C] | 3.35 |
| TSECPSDKDKSPWSHKAKNESWIK [E13W] | 2.17 |
| TSECPSDKDKSPNSHKAKNESWIK [E13N] | 3.43 |
| TSECPSDKDKSPASHKAKNESWIK [E13A] | 2.77 |
| TSECPSDKDKSPPSHKAKNESWIK [E13P] | 2.63 |
| TSECPSDKDKSPVSHKAKNESWIK [E13V] | 2.77 |
| TSECPSDKDKSPRSHKAKNESWIK [E13R] | 2.82 |
| TSECPSDKDKSPKSHKAKNESWIK [E13K] | 3.08 |
